Results published in patent publication US20250277029A1, “CANNABINOID TYPE 1 RECEPTOR BINDING PROTEINS AND USES THEREOF” (AMGEN INC., priority 2022, published 2025).

T1: XCR1-SMALP (Homo sapiens, UniProt P46094)
T1 sequence (P46094 1-333): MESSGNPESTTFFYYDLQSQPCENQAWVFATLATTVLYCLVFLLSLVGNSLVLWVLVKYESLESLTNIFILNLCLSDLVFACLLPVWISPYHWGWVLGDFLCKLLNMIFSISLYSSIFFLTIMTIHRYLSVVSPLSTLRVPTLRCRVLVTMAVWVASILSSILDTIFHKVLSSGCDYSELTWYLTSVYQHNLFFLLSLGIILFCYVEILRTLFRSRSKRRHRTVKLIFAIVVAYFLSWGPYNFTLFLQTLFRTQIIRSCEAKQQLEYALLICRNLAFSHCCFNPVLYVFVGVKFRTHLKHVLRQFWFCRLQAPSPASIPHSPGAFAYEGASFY

B1: LIBC673952-1: further cognate affinity-matured variant; HV SEQ ID NO: 368, LV SEQ ID NO: 367; 52777 in YTE format (antibody, V domains shown)
VH: QVQLQESGPGLVKPSQTLSLTCTVSGGSIRRGGDYWSWIRQHPGKGLEWIGHVYYTGQTTYNPSFRGRVTISVNTYKNQFSLKLSSVTAADTAVYYCARDYDILTGYSYYYYGLDVWGQGTTVTVSS
VL: DIVMTQSPLSLPVTPGEPASISCRSSQSLLHRSGYNYLDWYLQKPGQSPQLLIYQGSNRASGVPDRFSGSGSGTDFTLKISRVEAEDVGVYYCRQARALPRTFGQGTKVEIKR
modifications: YTE Fc format
notes: 52777 in YTE format
B2: LIBC680574-1: further VK1 LC-optimized variant; HV SEQ ID NO: 460, LV SEQ ID NO: 459; 52778 in YTE format (antibody, V domains shown)
VH: QVQLQESGPGLVKPSQTLSLTCTVSGGSIRRGGDYWAWIRQHPGKGLEWIGHVYYTGSTKYNPSFKDRATISVNTYKNQFSLKLSSVTAADTAVYYCARNYDTLTGYSYYYYGMDVWGQGTTVTVSS
VL: DIQMTQSPSSLSASVGDRVTITCRASQSISSYLNWYQQKPGKAPKLLIYGARRLGSGVPSRFSGSGSGTDFTLTISSLQPEDFATYYCQQYSSLPVTFGGGTKVEIKR
modifications: YTE Fc format
notes: further VK1 LC-optimized variant; 52778 in YTE format
B3: LIBC527814-1: LC-swapped affinity-matured 10D10 variant; HV SEQ ID NO: 236, LV SEQ ID NO: 235 (antibody, V domains shown)
VH: QVQLQESGPGLVKPSQTLSLTCTVSGGSIRRGGDYWGWIRQHPGKGLEWIGHVYQTGSTKYNPSFKDRATISVNTYKNQFSLKLSSVTAADTAVYYCARNYDTLTGYSYYYYGMDVWGQGTTVTVSS
VL: DIQMTQSPSTLSASVGDRVTITCRASQSISNYLNWYQQKPGKAPKLLIYAASSLHSGVPSRFSGSGSGTDFTLTISSLQPEDFASYYCQQYQSYPLTFGQGTKVEIKR
B4: LIBC523661-1: cognate affinity-matured 10D10 variant; HV SEQ ID NO: 98, LV SEQ ID NO: 97 (antibody, V domains shown)
VH: QVQLQESGPGLVKPSQTLSLTCTVSGGSIRRGGDYWSWIRQHPGKGLEWIGHIYYEGSTKYNPSFKGRATISVNTYKNQFSLKLSSVTAADTAVYYCARDYDPVTGHSYYYYGMDVWGQGTTVTVSS
VL: DIVMTQSPLSLPVTPGEPASISCRSSQSLLTSSGYNYVDWYLQKPGQSPQLLIYQGSNRASGVPDRFSGSGSGTDFTLKISRVEAEDVGVYYCRQARAIPRTFGQGTKVEIKR
B5: LIBC527997-1: LC-swapped affinity-matured 10D10 variant; HV SEQ ID NO: 226, LV SEQ ID NO: 225 (antibody, V domains shown)
VH: QVQLQESGPGLVKPSQTLSLTCTVSGGSIRRGGDYWAWIRQHPGKGLEWIGHIYQTGSTNYNPRFKGRATISVNTYKNQFSLKLSSVTAADTAVYYCARNYDTLTGYSYYYYGMDVWGQGTTVTVSS
VL: DIQMTQSPSSLSASVGDRVTITCRASQSISNYLNWYQQKPGKAPKLLIYAASSLHSGVPSRFSGSGSGTDFTLTISSLQPEDFASYYCQQYQSYPLTFGQGTKVEIKR
B6: LIBC527919-1: LC-swapped affinity-matured 10D10 variant; HV SEQ ID NO: 252, LV SEQ ID NO: 251 (antibody, V domains shown)
VH: QVQLQESGPGLVKPSQTLSLTCTVSGGSIRRGGDYWAWIRQHPGKGLEWIGHVYQTGSTAYNPNFKDRATISVNTYKNQFSLKLSSVTAADTAVYYCARNYDALSGYSYYYYGMDVWGQGTTVTVSS
VL: DIQLTQSPSSLSASVGDRVTITCRASQSIISYLNWYQQKPGKAPKLLIYAASSLRSGVPSRFSGSGSGTDFTLTISSLQPEDFATYYCQQYSNYPLTFGGGTRVEIKR
B7: LIBC680800-1: further VK1 LC-optimized affinity-matured variant (antibody, V domains shown)
VH: QVQLQESGPGLVKPSQTLSLTCTVSGGSIRRGGDYWAWIRQHPGKGLEWIGHIYQTGSTNYNPRFKGRATISVNTYKNQFSLKLSSVTAADTAVYYCARNYDTLTGYSYYYYGMDVWGQGTTVTVSS
VL: DIQMTQSPSSLSASVGDRVTITCRASQSISSYLNWYQQKPGKAPKLLIYSARALSSGVPSRFSGSGSGTDFTLTISSLQPEDFATYYCQQYRKFPLTFGGGTKVEIKR
B8: LIBC680812-1: further VK1 LC-optimized affinity-matured variant (antibody, V domains shown)
VH: QVQLQESGPGLVKPSQTLSLTCTVSGGSIRRGGDYWGWIRQHPGKGLEWIGHVYQTGSTKYNPSFKDRATISVNTYKNQFSLKLSSVTAADTAVYYCARNYDTLTGYSYYYYGMDVWGQGTTVTVSS
VL: DIQMTQSPSSLSASVGDRVTITCRASQSISSYLNWYQQKPGKAPKLLIYSARRLSSGVPSRFSGSGSGTDFTLTISSLQPEDFATYYCQQYRSYPITFGGGTKVEIKR
B9: LIBC681593-1: further VK1 LC-optimized affinity-matured variant (antibody, V domains shown)
VH: QVQLQESGPGLVKPSQTLSLTCTVSGGSIRRGGDYWAWIRQHPGKGLEWIGHIYQTGSTNYNPRFKGRATISVNTYKNQFSLKLSSVTAADTAVYYCARNYDTLTGYSYYYYGMDVWGQGTTVTVSS
VL: DIQMTQSPSSLSASVGDRVTITCRASQSISSYLNWYQQKPGKAPKLLIYNARRLGSGVPSRFSGSGSGTDFTLTISSLQPEDFATYYCQQYRSSPVTFGGGTKVEIKR
B10: LIBC680562-1: further VK1 LC-optimized affinity-matured variant (antibody, V domains shown)
VH: QVQLQESGPGLVKPSQTLSLTCTVSGGSIRRGGDYWAWIRQHPGKGLEWIGHIYQTGSTNYNPRFKGRATISVNTYKNQFSLKLSSVTAADTAVYYCARNYDTLTGYSYYYYGMDVWGQGTTVTVSS
VL: DIQMTQSPSSLSASVGDRVTITCRASQSISSYLNWYQQKPGKAPKLLIYSARRLSSGVPSRFSGSGSGTDFTLTISSLQPEDFATYYCQQYAKSPITFGGGTKVEIKR
B11: LIBC674090-1: further cognate affinity-matured variant (antibody, V domains shown)
VH: QVQLQESGPGLVKPSQTLSLTCTVSGGSIRRGGDYWSWIRQHPGKGLEWIGHIYYAGSTAYNPNFRGRVRISVNTYKNQFSLKLSSVTAADTAVYYCARGYDTSGYSYYYYGLDVWGQGTTVTVSS
VL: DIVMTQSPLSLPVTPGEPASISCRSSQSLLHRSGYNYLDWYLQKPGQSPQLLIYQGSNRASGVPDRFSGSGSGTDFTLKISRVEAEDVGVYYCMQSLQTPRTFGQGTKVEIKR
B12: LIBC674200-1: further cognate affinity-matured variant (antibody, V domains shown)
VH: QVQLQESGPGLVKPSQTLSLTCTVSGGSIRRGGDYWSWIRQHPGKGLEWIGHVYYTGQTAYNPNFRNRVRISVNTYKNQFSLKLSSVTAADTAVYYCARGYDVSGYSYYYYGMDVWGQGTTVTVSS
VL: DIVMTQSPLSLPVTPGEPASISCRSSQSLLHRSGYNYLDWYLQKPGQSPQLLIYLGSNRASGVPGRFSGSGSGTDFTLKISRVEAEDVGVYYCMQSLQTPRTFGQGTKVEIKR
B13: LIBC674229-1: further cognate affinity-matured variant (antibody, V domains shown)
VH: QVQLQESGPGLVKPSQTLSLTCTVSGGSIRRGGDYWSWIRQHPGKGLEWIGHIYQTGQTKYNPSFKGRVRISVNTYKNQFSLKLSSVTAADTAVYYCARGYDVSGYSYYYYGMDVWGQGTTVTVSS
VL: DIVMTQSPLSLPVTPGEPASISCRSSQSLLHRSGYNYLDWYLQKPGQSPQLLIYQGSNRASGVPDRFSGSGSGTDFTLKISRVEAEDVGVYYCMQSLQTPRTFGQGTKVEIKR

Assays:
XCR1-SMALP = molecular target: T1, XCR1-SMALP; test: Yeast-display non-specific binding to irrelevant XCR1-SMALP; details: after background subtraction; for 50 nM XCR1 SMALP, relative binding fold change: fold change compared to LIBC523797-1(Fab); for 25 nM XCR1-SMALP-GFP, relative binding fold change: fold change compared to LIBC528116 (Fab)
Excerpt: All eighteen cognate variants met the stringent binding improvement threshold against huCB1I-GFP-SMALP and had minimal binding to irrelevant XCR1-SMALP and empty-ND (Table 32). […] For LIBC674043-1 and LIBC674200-1, VH R149S and VL G76D germline reversion mutations were also included in the panel of IgG1 SEFL2 mAbs produced for functional testing.

[1] = system: diet-induced obese (DIO) huCB1 knock in (KI) mice; test: Diet-induced obese huCB1 knock in mice, 30 mg/kg QW for 35 days: body weight, food intake, fat mass, liver weight; assay type: in vivo, mouse; details: YTE format
Experimental: The further affinity matured antibodies LIBC673952 (52777) and LIBC680574 (52778) in YTE format (Dall'Acqua et al., The Journal of Immunology, 169: 5171-5180 (2002)) was scaled up for testing in diet-induced obese (DIO) transgenic mice with huCB1 knocked in. […] The antibodies (52777, 52778, and 37940) and a control antibody (huIgG control) were administered to the mice at 30 mg/kg QW for 35 days, and the body weight and food intake of the animals were measured every 3-4 days and the results are shown in FIGS. 10A and 10B.

CB1-nanodisc = test: Octet affinity assay with CB1-nanodisc; assay type: binding, human; details: 1:1 Langmuir model
Experimental: Affinity assay using Octet. The Octet@HTX (Sartorius, Germany) instrument was used to determine affinities of anti-CB1 antibodies. Prior to experiment, Streptavidin (SA) biosensors (ForteBio, #18-5021) were pre-hydrated for 10 min in Octet assay buffer containing 10 mM Tris (Fisher, #BP152-1), 150 mM NaCl (Fisher, #5271-10), 1 mM CaCl2) (Fisher, #BP510-500), 0.1 mg/mL BSA (BioShop, #ALB001.1), and 0.1% Triton-X 100 (Calbiochem, #9410-OP), pH7.4. SA biosensors were loaded with biotinylated anti-human Fc antibody (Invitrogen, #A18827) followed by one baseline step of 60 s in Octet assay buffer. Anti-CB1 antibodies were prepared in Octet assay buffer and captured by the anti-human Fc antibody prior to being submerged in wells containing different concentrations of CB1-nanodisc (#CB1-008, in-house) for 5 min, followed by 10 min dissociation. […] SA biosensors were used once without regeneration. For data evaluation, ForteBio Data Analysis v11.0 software was used. The kinetic rate constants, association rate constant (ka, M−1s−1), dissociation rate constant (kd, s−1), and the equilibrium rate constant (KD, M) were determined by using a 1:1 Langmuir model.

Molecule | 50 nM XCR1 SMALP, relative binding fold change (XCR1-SMALP) | 25 nM XCR1-SMALP-GFP, relative binding fold change (XCR1-SMALP) | Octet (nanodisc) k off (CB1-nanodisc) [s⁻¹] | Octet (nanodisc) k on (CB1-nanodisc) [M⁻¹ s⁻¹] | also measured
B1 | 0.59 | – | – | – | average daily food intake [1]: did not change significantly; body weight of the animals [1]: reduced body weight
B2 | – | 0.56 | – | – | average daily food intake [1]: did not change significantly; body weight of the animals [1]: reduced body weight
B3 | – | – | 0.00198 | 56600 | –
B4 | – | – | 0.00275 | 35700 | –
B5 | – | – | 0.00136 | 51800 | –
B6 | – | – | 0.00339 | 56200 | –
B7 | – | 0.47 | – | – | –
B8 | – | 0.59 | – | – | –
B9 | – | 0.72 | – | – | –
B10 | – | 0.64 | – | – | –
B11 | 0.74 | – | – | – | –
B12 | 0.79 | – | – | – | –
B13 | 0.80 | – | – | – | –
